Laboratory results: patent US20130052130A1

What was measured:
TAG-72 = assay: competition assay, single aliquots; antigen and competitor not stated
BSM = assay: competition ELISA, BSM-coated plate; competitor is mCC49 at 0.033 ug/mL

Substance | Relative Affinity Constant (Ka) (relative to Fab′-NEM defined as 1.0) (TAG-72) | I1/2 fold relative to F(ab′)2 (fold (× the I1/2 of F(ab′)2)) (BSM)
CC49 Fab′-dPEG12-Tris(m-dPEG24)3 | 0.3 | 
CC49 Fab′-NEM | 1 | 40
CC49 Fab′-dPEG12-Tris(dPEG12 acid)3 | 0.3 | 
CC49 Fab′-dPEG12-Tris(dPEG12-Tris(m-dPEG11)3)3 | 0.4 | 
CC49 Fab′-dPEG12-Tris(dPEG24 acid)3 | 1 | 40
